# Measured values taken from the Immune Epitope Database (IEDB).
# How the values were obtained:
# [1] = target: HLA-A*32:01; test: IEDB peptide-MHC binding, purified MHC/competitive/radioactivity; filed as Kd, often an IC50 or EC50 that approximates it; ≥ and ≤ were set here for values at or beyond the usual limits of such assays
# [2] = target: HLA-A*01:01; test: as above
# [3] = target: HLA-A*23:01; test: as above
# [4] = target: HLA-A*24:02; test: as above
# [5] = target: HLA-A*26:01; test: as above
# [6] = target: HLA-A*29:02; test: as above
# [7] = target: HLA-A*30:02; test: as above
# [8] = target: HLA-B*08:01; test: as above
# [9] = target: HLA-A*30:01; test: as above
# [10] = target: HLA-B*40:01; test: as above
# [11] = target: HLA-B*44:02; test: as above
# [12] = target: HLA-B*44:03; test: as above
# [13] = target: HLA-A*02:01; test: IEDB peptide-MHC binding, purified MHC/competitive/fluorescence; ≥ and ≤ were set here for values at or beyond the usual limits of such assays; settings: source organism: Vaccinia virus WR
# [14] = target: HLA-A*24:02; test: as above; settings: source organism: Vaccinia virus WR
# [15] = target: HLA-A*01:01; test: IEDB peptide-MHC binding, purified MHC/direct/fluorescence; filed as Kd, often an IC50 or EC50 that approximates it; ≥ and ≤ were set here for values at or beyond the usual limits of such assays; settings: source organism: SARS-CoV1
# [16] = target: HLA-A*03:01; test: as above; settings: source organism: SARS-CoV1
# [17] = target: HLA-B*15:01; test: as above; settings: source organism: SARS-CoV1
# [18] = target: HLA-B*58:01; test: as above; settings: source organism: SARS-CoV1
# [19] = target: HLA-A*31:01; test: IEDB peptide-MHC binding, purified MHC/competitive/radioactivity; filed as Kd, often an IC50 or EC50 that approximates it; ≥ and ≤ were set here for values at or beyond the usual limits of such assays
# [20] = target: HLA-A*33:01; test: as above
# [21] = target: HLA-B*51:01; test: as above; settings: source organism: Dengue virus 1 Brazil/97-11/1997
# [22] = target: HLA-A*03:01; test: as above; settings: source organism: Vaccinia virus WR
# [23] = target: HLA-A*11:01; test: as above; settings: source organism: Vaccinia virus WR
# [24] = target: HLA-A*68:01; test: as above; settings: source organism: Vaccinia virus WR
# [25] = source organism: Dengue virus 1 Brazil/97-11/1997
# [26] = source organism: SARS coronavirus Tor2
# [27] = source organism: Vaccinia virus Copenhagen
# [28] = source organism: Dengue virus 4 Philippines/H241/1956
# [29] = source organism: Mammarenavirus guanaritoense
# [30] = source organism: Vaccinia virus WR
# [31] = source organism: Dengue virus 2 Jamaica/1409/1983
# [32] = source organism: Mammarenavirus caliense
# [33] = source organism: Mammarenavirus machupoense
# [34] = source organism: Mammarenavirus juninense
# [35] = source organism: Mammarenavirus choriomeningitidis
# [36] = source organism: Dengue virus 2 Peru/IQT2913/1996
# [37] = source organism: Dengue virus 4 Dominica/814669/1981
# [38] = source organism: Mammarenavirus lassaense
# [39] = source organism: Dengue virus 3 Singapore/8120/1995
# [40] = source organism: Dengue virus 3 Martinique/1243/1999
sequence,measurement,setting,value
KSYAQMWQLM,Kd,[1]; [25],89.9 nM
FFVYENAFL,Kd,[2]; [26],≥ 78100 nM
same,Kd,[3]; [26],6780 nM
same,Kd,[4]; [26],9050 nM
same,Kd,[5]; [26],≥ 32700 nM
same,Kd,[6]; [26],≥ 107000 nM
same,Kd,[7]; [26],≥ 96800 nM
QMQRKHGGML,Kd,[8]; [25],436 nM
MMRNRTKPI,Kd,[8]; [27],1.49 nM
RTYCIEASI,Kd,[1]; [28],19.2 nM
SSSPTILDNY,Kd,[2]; [29],22.6 nM
same,Kd,[5]; [29],17800 nM
same,Kd,[6]; [29],99 nM
same,Kd,[9]; [29],≥ 21000 nM
same,Kd,[7]; [29],42.5 nM
same,Kd,[1]; [29],≥ 69900 nM
HMLEFLYSF,Kd,[1]; [30],0.296 nM
AILLVAVSF,Kd,[1]; [31],12800 nM
KTWGKAKML,Kd,[1]; [31],39.2 nM
AYSNRNRFL,Kd,[2]; [26],≥ 78100 nM
same,Kd,[3]; [26],658 nM
same,Kd,[4]; [26],92.2 nM
same,Kd,[5]; [26],≥ 77900 nM
same,Kd,[6]; [26],6640 nM
same,Kd,[7]; [26],≥ 54700 nM
ILLNNPNLF,Kd,[3]; [29],423 nM
same,Kd,[4]; [29],793 nM
same,Kd,[6]; [29],46.7 nM
PYENLLYKI,Kd,[3]; [32],9.86 nM
same,Kd,[4]; [32],253 nM
same,Kd,[6]; [32],≥ 52400 nM
CGDPSSLDY,Kd,[2]; [33],6.78 nM
same,Kd,[3]; [33],≥ 77700 nM
same,Kd,[4]; [33],≥ 77500 nM
same,Kd,[5]; [33],≥ 74600 nM
same,Kd,[6]; [33],4730 nM
same,Kd,[7]; [33],870 nM
YSIFLIFSI,Kd,[1]; [27],951 nM
AFIDTIKSL,Kd,[2]; [26],≥ 78100 nM
same,Kd,[3]; [26],5010 nM
same,Kd,[4]; [26],10200 nM
same,Kd,[5]; [26],≥ 34200 nM
same,Kd,[6]; [26],2950 nM
same,Kd,[7]; [26],13600 nM
NYLRKRVMF,Kd,[2]; [26],≥ 78100 nM
same,Kd,[3]; [26],11200 nM
same,Kd,[4]; [26],18000 nM
same,Kd,[5]; [26],≥ 60200 nM
same,Kd,[6]; [26],3270 nM
same,Kd,[7]; [26],9150 nM
CWFADTNLI,Kd,[3]; [33],88.6 nM
same,Kd,[4]; [33],101 nM
same,Kd,[6]; [33],1290 nM
SEMIIPKNFA,Kd,[10]; [31],8440 nM
same,Kd,[11]; [31],12 nM
same,Kd,[12]; [31],25 nM
RVRNIIASI,Kd,[9]; [30],0.103 nM
same,Kd,[1]; [30],1.04 nM
same,Kd,[8]; [30],21.7 nM
KAEVSMHEV,Kd,[2]; [34],17500 nM
same,Kd,[3]; [34],≥ 68600 nM
same,Kd,[4]; [34],≥ 77500 nM
same,Kd,[5]; [34],≥ 77900 nM
same,Kd,[6]; [34],≥ 78900 nM
same,Kd,[7]; [34],≥ 51900 nM
DTSNTGRAEL,Kd,[2]; [35],≥ 50200 nM
same,Kd,[5]; [35],16000 nM
same,Kd,[6]; [35],≥ 71400 nM
same,Kd,[9]; [35],≥ 24500 nM
same,Kd,[7]; [35],7180 nM
same,Kd,[1]; [35],≥ 69900 nM
TELRYSWKTW,Kd,[1]; [36],2420 nM
same,Kd,[11]; [36],7.9 nM
same,Kd,[12]; [36],33 nM
GSIIQFPNTY,Kd,[2]; [26],1050 nM
same,Kd,[3]; [26],≥ 70000 nM
same,Kd,[4]; [26],≥ 70300 nM
same,Kd,[5]; [26],1880 nM
same,Kd,[6]; [26],462 nM
same,Kd,[7]; [26],545 nM
STLIFFVII,Kd,[1]; [30],17.8 nM
NVEYRFLVI,IC50,[13],≥ 144000 nM
same,IC50,[14],13700 nM
same,Kd,[8]; [30],235 nM
CADGTRHTY,Kd,[15],438 nM
same,Kd,[16],9670 nM
same,Kd,[17],1260 nM
same,Kd,[18],1210 nM
same,Kd,[3]; [26],≥ 67600 nM
same,Kd,[4]; [26],≥ 37700 nM
same,Kd,[5]; [26],2780 nM
same,Kd,[6]; [26],963 nM
same,Kd,[7]; [26],39.8 nM
RRVTRKHMIL,Kd,[8]; [28],64 nM
KTPVESWEEV,Kd,[1]; [31],1620 nM
GYTMHANYIF,Kd,[2]; [26],≥ 44100 nM
same,Kd,[3]; [26],16.4 nM
same,Kd,[4]; [26],11.1 nM
same,Kd,[5]; [26],≥ 41100 nM
same,Kd,[6]; [26],407 nM
same,Kd,[7]; [26],7590 nM
TVYAKFASL,Kd,[8]; [30],1.64 nM
RVYVGNVAW,Kd,[1]; [30],1.08 nM
MFGGVSWMIR,Kd,[19]; [37],7.52 nM
same,Kd,[1]; [37],1430 nM
same,Kd,[20]; [37],14.8 nM
HTSSMRGVY,Kd,[2]; [26],85.2 nM
same,Kd,[3]; [26],≥ 77800 nM
same,Kd,[4]; [26],≥ 77600 nM
same,Kd,[5]; [26],4.78 nM
same,Kd,[6]; [26],8.21 nM
same,Kd,[7]; [26],0.131 nM
ISKVRSNAA,Kd,[9]; [28],712 nM
same,Kd,[8]; [28],7.31 nM
KTWMINIMI,Kd,[1]; [30],≥ 77800 nM
LFARTRSMW,Kd,[2]; [26],≥ 78100 nM
same,Kd,[3]; [26],488 nM
same,Kd,[4]; [26],146 nM
same,Kd,[5]; [26],≥ 77900 nM
same,Kd,[6]; [26],10200 nM
same,Kd,[7]; [26],≥ 83300 nM
FFKCFRYVF,Kd,[8]; [27],10.9 nM
MWSFNPETNI,Kd,[2]; [26],≥ 70400 nM
same,Kd,[3]; [26],407 nM
same,Kd,[4]; [26],551 nM
same,Kd,[5]; [26],≥ 39100 nM
same,Kd,[6]; [26],13300 nM
same,Kd,[7]; [26],≥ 24700 nM
SPKERLPYI,Kd,[8]; [30],1040 nM
NDLKYSWKTW,Kd,[1]; [28],8890 nM
same,Kd,[11]; [28],2720 nM
MYASALVLL,Kd,[2]; [26],≥ 66000 nM
same,Kd,[3]; [26],≥ 46400 nM
same,Kd,[4]; [26],≥ 65300 nM
same,Kd,[5]; [26],4620 nM
same,Kd,[6]; [26],≥ 22500 nM
same,Kd,[7]; [26],≥ 33500 nM
LVSTQEFRY,Kd,[2]; [26],30.8 nM
same,Kd,[3]; [26],10900 nM
same,Kd,[4]; [26],12700 nM
same,Kd,[5]; [26],1760 nM
same,Kd,[6]; [26],6.84 nM
same,Kd,[7]; [26],5.95 nM
RYWYLNHTV,Kd,[2]; [38],≥ 28200 nM
same,Kd,[3]; [38],15.3 nM
same,Kd,[4]; [38],76.8 nM
same,Kd,[5]; [38],≥ 77900 nM
same,Kd,[6]; [38],≥ 38600 nM
same,Kd,[7]; [38],0.603 nM
KITGNLVQI,Kd,[1]; [28],2710 nM
FSAVGNICY,Kd,[2]; [26],0.34 nM
same,Kd,[3]; [26],≥ 77800 nM
same,Kd,[4]; [26],≥ 51600 nM
same,Kd,[5]; [26],409 nM
same,Kd,[6]; [26],7.97 nM
same,Kd,[7]; [26],28.5 nM
QEVPFCSHHF,Kd,[10]; [28],4870 nM
same,Kd,[11]; [28],12.2 nM
same,Kd,[12]; [28],180 nM
RLGYILEEI,Kd,[1]; [37],1110 nM
EDAQPGLLSY,Kd,[2]; [29],≥ 70400 nM
same,Kd,[3]; [29],≥ 70000 nM
same,Kd,[4]; [29],≥ 70300 nM
same,Kd,[5]; [29],≥ 25800 nM
same,Kd,[6]; [29],8210 nM
same,Kd,[7]; [29],17600 nM
FQPHQLWTTL,Kd,[1]; [25],761 nM
KEEHSSTWHY,Kd,[11]; [39],42.2 nM
same,Kd,[12]; [39],205 nM
GFKKRVNVF,Kd,[8]; [30],110 nM
EGFMRKQKY,Kd,[2]; [35],≥ 49600 nM
same,Kd,[3]; [35],≥ 56100 nM
same,Kd,[4]; [35],≥ 77500 nM
same,Kd,[5]; [35],≥ 77900 nM
same,Kd,[6]; [35],≥ 78900 nM
same,Kd,[7]; [35],≥ 53500 nM
METLLLLGLM,Kd,[10]; [40],1020 nM
same,Kd,[11]; [40],62.4 nM
same,Kd,[12]; [40],2650 nM
RQIFIHYSV,Kd,[1]; [27],1.04 nM
FFTYLCGFI,Kd,[2]; [26],≥ 43100 nM
same,Kd,[3]; [26],13700 nM
same,Kd,[4]; [26],18800 nM
same,Kd,[5]; [26],≥ 77900 nM
same,Kd,[6]; [26],822 nM
same,Kd,[7]; [26],≥ 78900 nM
GTINRILVI,Kd,[1]; [30],14.5 nM
SIHEKFWPL,Kd,[8]; [30],1.36 nM
TEMGRLPTFM,Kd,[11]; [31],11.6 nM
same,Kd,[12]; [31],167 nM
IAFLRFLAI,Kd,[8]; [25],1.26 nM
same,Kd,[21],9.53 nM
KKMIRPQPM,Kd,[8]; [25],188 nM
LVKESMASLK,Kd,[22],4.1 nM
same,Kd,[23],11.3 nM
same,Kd,[6]; [30],≥ 53600 nM
same,Kd,[19]; [30],64.5 nM
same,Kd,[20]; [30],394 nM
same,Kd,[24],0.437 nM
ESDGKPQKV,Kd,[2]; [38],188 nM
same,Kd,[3]; [38],≥ 77700 nM
same,Kd,[4]; [38],≥ 77500 nM
same,Kd,[5]; [38],≥ 77900 nM
same,Kd,[6]; [38],≥ 78900 nM
same,Kd,[7]; [38],≥ 76900 nM
SMLSIFNIV,Kd,[8]; [30],≥ 77700 nM
